Data taken from patent publication EP3277718B1 (Baxalta GmbH, dated 2021).

Key:
[1] = molecular target: T1, human MIF (macrophage migration inhibitory factor), recombinant (human, UniProt P14174 2-115); test: cell-based or functional assay
[2] = molecular target: T1, human MIF (macrophage migration …); test: SPR, Biacore 3000, RAM9 amine-coupled to CM5 chip, MIF injected at 40-480 nM, 1:1 Langmuir fit with mass transfer

T1 sequence (P14174 2-115 limits assumed): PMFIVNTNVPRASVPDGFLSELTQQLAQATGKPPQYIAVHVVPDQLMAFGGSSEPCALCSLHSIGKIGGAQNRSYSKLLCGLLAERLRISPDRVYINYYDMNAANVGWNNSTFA

B1: RAM9 (antibody, human IgG1, kappa, V domains shown)
VH: EVQLLESGGGLVQPGGSLRLSCAASGFTFSIYSMNWVRQAPGKGLEWVSSIGSSGGTTYYADSVKGRFTISRDNSKNTLYLQMNSLRAEDTAVYYCAGSQWLYGMDVWGQGTTVTVSS
VL: DIQMTQSPSSLSASVGDRVTITCRSSQRIMTYLNWYQQKPGKAPKLLIFVASHSQSGVPSRFRGSGSETDFTLTISGLQPEDSATYYCQQSFWTPLTFGGGTKVEIKR
notes: also deposited as plasmids DSM 25860 (hc) and DSM 25859 (lc); also called anti-MIF antibody RAM9; anti-oxMIF antibody
B1 was tested, and the “Potency (IC 50); inhibition of random migration of human U937 cells, Transwell chemokinesis assay” value [1] was 1 nM and the Kd [2] was 1.7 nM.
